Assay results reported in patent US20220242962A1 (APTEVO RESEARCH AND DEVELOPMENT, published 2022).

Molecular target: T1, Recombinant FcRn/b2M protein (human, UniProt P55899 24-297; P61769 21-119, limits assumed)
T1 construct: also called hFcRn/b2M; neonatal Fc receptor
Test: SPR pH 6.0, FcRn/b2M immobilized, two-state reaction model
Method: Recombinant FcRn/b2M protein was generated via transient transfection of HEK-293 cells with a bi-cistronic vector containing the genes for both FcRn and […]. The complex was purified using IMAC chromatography and subsequently buffer exchanged into IMAC elution buffer after verifying purity of the IMAC eluate by analytical SEC. hFcRn/b2M at 10 μg/ml in 10 mM sodium acetate (pH 4.5) was immobilized on a CM5 chip by direct amine coupling chemistry to a level of ˜600 RU. A reference flow cell was left blank.
Different concentrations of the Fc variant protein (5-80 nM by 2-fold dilutions in pH 6.0 running buffer) including running buffer as blank were injected in randomized order at 30 μL/min for 180 seconds followed by a 120 second dissociation period.
Sensorgrams obtained from kinetic SPR measurements were analyzed by the double subtraction method. The signal from the reference flow cell was subtracted from the analyte binding response obtained from flow cell with immobilized ligands. Buffer reference was subtracted from analyte binding responses, and the final double-referenced data were analyzed with Biacore T200 Evaluation software (2.0, GE), globally fitting data to derive kinetic parameters. All sensorgrams were fitted using two-state reaction model, as described in Weirong Wang et al, DrugMetab Dispos.: 39(9): 1469-77 (2011).

Kd | Binder
22 nM | K322A Fc (other, IgG1 Fc with L234A, L235A, G237A, K322A (EU); the listing labels the entry 'K332A') EPKSSDKTHTCPPCPAPEAAGAPSVFLFPPKPKDTLMISRTPEVTCVVVDVSHEDPEVKFNWYVDGVEVHNAKTKPREEQYNSTYRVVSVLTVLHQDWLNGKEYKCAVSNKALPAPIEKTISKAKGQPREPQVYTLPPSRDELTKNQVSLTCLVKGFYPSDIAVEWESNGQPENNYKTTPPVLDSDGSFFLYSKLTVDKSRWQQGNVFSCSVMHEALHNHYTQKSLSLSPG
33 nM | Null2 Fc (other, human, UniProt P01857-1 99-329, looked up, name in EU numbering, domain: Fc region) EPKSCDKTHTCPPCPAPEAAGAPSVFLFPPKPKDTLMISRTPEVTCVVVDVSHEDPEVKFNWYVDGVEVHNAKTKPREEQYNSTYRVVSVLTVLHQDWLNGKAYACAVSNKALPAPIEKTISKAKGQPREPQVYTLPPSRDELTKNQVSLTCLVKGFYPSDIAVEWESNGQPENNYKTTPPVLDSDGSFFLYSKLTVDKSRWQQGNVFSCSVMHEALHNHYTQKSLSLSPG
